# Test results taken from IntAct's records for PubMed 31515488.
# B1: Myogenin (Homo sapiens), P15173 (parent)
# chain: MELYETSPYFYQEPRFYDGENYLPVHLQGFEPPGYERTELTLSPEAPGPLEDKGLGTPEHCPGQCLPWACKVCKRKSVSVDRRRAATLREKRRLKKVNEAFEALKRSTLLNPNQRLPKVEILRSAIQYIERLQALLSSLNQEERDLRYRGGGGPQPGVPSECSSHSASCSPEWGSALEFSANPGDHLLTADPTDAHNLHSLTSIVDSITVEDVSVAFPDETMPN
# partner: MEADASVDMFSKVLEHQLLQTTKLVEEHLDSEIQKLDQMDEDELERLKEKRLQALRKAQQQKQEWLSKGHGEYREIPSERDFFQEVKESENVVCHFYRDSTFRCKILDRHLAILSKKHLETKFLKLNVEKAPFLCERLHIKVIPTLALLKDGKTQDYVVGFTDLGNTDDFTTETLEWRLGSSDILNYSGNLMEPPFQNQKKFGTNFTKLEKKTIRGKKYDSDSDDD
# B2: Protein unc-50 homolog (Homo sapiens), Q53HI1 (parent)
# chain: MLPSTSVNSLVQGNGVLNSRDAARHTAGAKRYKYLRRLFRFRQMDFEFAAWQMLYLFTSPQRVYRNFHYRKQTKDQWARDDPAFLVLLSIWLCVSTIGFGFVLDMGFFETIKLLLWVVLIDCVGVGLLIATLMWFISNKYLVKRQSRDYDVEWGYAFDVHLNAFYPLLVILHFIQLFFINHVILTDTFIGYLVGNTLWLVAVGYYIYVTFLGYSALPFLKNTVILLYPFAPLILLYGLSLALGWNFTHTLCSFYKYRVK
# partner: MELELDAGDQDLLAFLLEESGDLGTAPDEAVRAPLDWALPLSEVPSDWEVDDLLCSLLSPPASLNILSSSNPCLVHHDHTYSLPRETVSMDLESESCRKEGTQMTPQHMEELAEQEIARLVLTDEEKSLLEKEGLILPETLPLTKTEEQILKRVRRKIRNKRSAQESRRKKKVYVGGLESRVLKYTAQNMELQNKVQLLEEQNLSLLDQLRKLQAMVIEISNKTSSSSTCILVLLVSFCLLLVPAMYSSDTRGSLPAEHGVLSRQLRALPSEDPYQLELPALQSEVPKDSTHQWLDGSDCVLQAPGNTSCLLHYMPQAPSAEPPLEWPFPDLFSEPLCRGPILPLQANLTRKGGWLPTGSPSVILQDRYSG
# B3: Myogenin (Homo sapiens), P15173 (parent)
# chain: B1 chain
# partner: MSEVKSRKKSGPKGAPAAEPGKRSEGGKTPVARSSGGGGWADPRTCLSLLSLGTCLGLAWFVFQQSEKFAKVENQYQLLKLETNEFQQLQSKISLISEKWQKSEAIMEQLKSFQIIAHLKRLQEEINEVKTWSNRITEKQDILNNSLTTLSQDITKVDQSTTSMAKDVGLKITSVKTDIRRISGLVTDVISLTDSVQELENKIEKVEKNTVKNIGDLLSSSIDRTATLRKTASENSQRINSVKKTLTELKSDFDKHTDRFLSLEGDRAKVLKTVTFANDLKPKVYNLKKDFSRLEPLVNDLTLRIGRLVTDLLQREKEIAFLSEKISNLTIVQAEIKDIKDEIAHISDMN
# B4: Ribonuclease P protein subunit p30 (Homo sapiens), P78346 (parent)
# chain: MAVFADLDLRAGSDLKALRGLVETAAHLGYSVVAINHIVDFKEKKQEIEKPVAVSELFTTLPIVQGKSRPIKILTRLTIIVSDPSHCNVLRATSSRARLYDVVAVFPKTEKLFHIACTHLDVDLVCITVTEKLPFYFKRPPINVAIDRGLAFELVYSPAIKDSTMRRYTISSALNLMQICKGKNVIISSAAERPLEIRGPYDVANLGLLFGLSESDAKAAVSTNCRAALLHGETRKTAFGIISTVKKPRPSEGDEDCLPASKKAKCEG
# B5: Protein LDOC1 (Homo sapiens), O95751 (parent)
# chain: MVDELVLLLHALLMRHRALSIENSQLMEQLRLLVCERASLLRQVRPPSCPVPFPETFNGESSRLPEFIVQTASYMLVNENRFCNDAMKVAFLISLLTGEAEEWVVPYIEMDSPILGDYRAFLDEMKQCFGWDDDEDDDDEEEEDDY
# partner: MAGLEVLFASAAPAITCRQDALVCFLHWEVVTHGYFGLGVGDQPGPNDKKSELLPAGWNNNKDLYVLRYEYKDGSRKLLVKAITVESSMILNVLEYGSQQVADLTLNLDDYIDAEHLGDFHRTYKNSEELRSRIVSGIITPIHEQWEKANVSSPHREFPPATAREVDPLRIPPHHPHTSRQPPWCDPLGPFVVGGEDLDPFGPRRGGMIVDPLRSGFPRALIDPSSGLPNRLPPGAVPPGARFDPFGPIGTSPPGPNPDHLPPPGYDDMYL
# B6: Zinc finger protein 544 (Homo sapiens), Q6NX49 (parent)
# chain: MEARSMLVPPQASVCFEDVAMAFTQEEWEQLDLAQRTLYREVTLETWEHIVSLGLFLSKSDVISQLEQEEDLCRAEQEAPRDWKATLEENRLNSEKDRAREELSHHVEVYRSGPEEPPSLVLGKVQDQSNQLREHQENSLRFMVLTSERLFAQREHCELELGGGYSLPSTLSLLPTTLPTSTGFPKPNSQVKELKQNSAFINHEKNGADGKHCESHQCARAFCQSIYLSKLGNVETGKKNPYEYIVSGDSLNYGSSLCFHGRTFSVKKSDDCKDYGNLFSHSVSLNEQKPVHFGKSQYECDECRETCSESLCLVQTERSGPGETPFRCEERCAAFPMASSFSDCNIIQTTEKPSVCNQCGKSFSCCKLIHQRTHTGEKPFECTQCGKSFSQSYDLVIHQRTHTGEKPYECDLCGKSFTQRSKLITHQRIHTGEKPYQCIECRKSFRWNSNLIVHQRIHTGEKPYECTHCGKSFSQSYELVTHKRTHTGEKPFKCTQCGKSFSQKYDLVVHQRTHTGEKPYECNLCGKSFSQSSKLITHQRIHTGEKPYQCIECGKSFRWNSNLVIHQRIHTGEKPYDCTHCGKSFSQSYQLVAHKRTHTGEKPYECNECGKAFNRSTQLIRHLQIHTGEKPYKCNQCNKAFARSSYLVMHQRTHTGEKPFECSQCGKAFSGSSNLLSHHRIHSGEKPYECSDCGKSFRQQSQLVVHRRTHTGEKP
# B7: Phagosome assembly factor 1 (Homo sapiens), Q9BSU1 (parent)
# chain: MLDLEVVPERSLGNEQWEFTLGMPLAQAVAILQKHCRIIKNVQVLYSEQSPLSHDLILNLTQDGIKLMFDAFNQRLKVIEVCDLTKVKLKYCGVHFNSQAIAPTIEQIDQSFGATHPGVYNSAEQLFHLNFRGLSFSFQLDSWTEAPKYEPNFAHGLASLQIPHGATVKRMYIYSGNSLQDTKAPMMPLSCFLGNVYAESVDVLRDGTGPAGLRLRLLAAGCGPGLLADAKMRVFERSVYFGDSCQDVLSMLGSPHKVFYKSEDKMKIHSPSPHKQVPSKCNDYFFNYFTLGVDILFDANTHKVKKFVLHTNYPGHYNFNIYHRCEFKIPLAIKKENADGQTETCTTYSKWDNIQELLGHPVEKPVVLHRSSSPNNTNPFGSTFCFGLQRMIFEVMQNNHIASVTLYGPPRPGSHLRTAELP
# B8: Homeobox protein VENTX (Homo sapiens), O95231 (parent)
# chain: MRLSSSPPRGPQQLSSFGSVDWLSQSSCSGPTHTPRPADFSLGSLPGPGQTSGAREPPQAVSIKEAAGSSNLPAPERTMAGLSKEPNTLRAPRVRTAFTMEQVRTLEGVFQHHQYLSPLERKRLAREMQLSEVQIKTWFQNRRMKHKRQMQDPQLHSPFSGSLHAPPAFYSTSSGLANGLQLLCPWAPLSGPQALMLPPGSFWGLCQVAQEALASAGASCCGQPLASHPPTPGRPSLGPALSTGPRGLCAMPQTGDAF
# Variants of: B1
# Details: with txnd9_human TXNDC9, O14530
row,effect of a mutation on the interaction,Variant
1,with no effect,P49H
2,disrupting interaction strength,A181T

# Variants of: B2
# Details: with creb3_human CREB3, O43889
row,effect of a mutation on the interaction,Variant
1,with no effect,S214G

# Variants of: B3
# Details: with ikip_human IKBIP
row,effect of a mutation on the interaction,Variant
1,disrupting interaction strength,A181T

# Variants of: B4
# Details: with hm20a_human HMG20A
row,effect of a mutation on the interaction,Variant
1,with no effect,G12D

# Variants of: B5
# Details: with psmf1_human PSMF1, Q92530
row,effect of a mutation on the interaction,Variant
1,disrupting interaction strength,L12H

# Variants of: B6
# Details: with traf2_human TRAF2, Q12933
# traf2_human TRAF2, Q12933, sequence (Q12933 whole entry): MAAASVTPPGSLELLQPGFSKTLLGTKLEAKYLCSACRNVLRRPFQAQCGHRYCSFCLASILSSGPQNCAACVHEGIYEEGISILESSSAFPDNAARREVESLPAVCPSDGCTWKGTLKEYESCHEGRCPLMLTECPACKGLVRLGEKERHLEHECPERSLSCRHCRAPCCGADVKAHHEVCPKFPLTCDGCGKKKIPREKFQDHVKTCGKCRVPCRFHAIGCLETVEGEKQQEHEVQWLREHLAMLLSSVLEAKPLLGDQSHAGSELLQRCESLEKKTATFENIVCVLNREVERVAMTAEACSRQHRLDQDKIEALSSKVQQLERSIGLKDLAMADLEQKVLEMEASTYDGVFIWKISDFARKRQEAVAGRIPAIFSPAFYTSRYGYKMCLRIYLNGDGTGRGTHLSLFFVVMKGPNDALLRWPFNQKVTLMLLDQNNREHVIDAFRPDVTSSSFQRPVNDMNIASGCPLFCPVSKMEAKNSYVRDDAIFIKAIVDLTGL
row,effect of a mutation on the interaction,Variant
1,disrupting interaction strength,K406M

# Variants of: B7
# Details: with bcas3_human BCAS3, Q9H6U6
# bcas3_human BCAS3, Q9H6U6, sequence (Q9H6U6 whole entry): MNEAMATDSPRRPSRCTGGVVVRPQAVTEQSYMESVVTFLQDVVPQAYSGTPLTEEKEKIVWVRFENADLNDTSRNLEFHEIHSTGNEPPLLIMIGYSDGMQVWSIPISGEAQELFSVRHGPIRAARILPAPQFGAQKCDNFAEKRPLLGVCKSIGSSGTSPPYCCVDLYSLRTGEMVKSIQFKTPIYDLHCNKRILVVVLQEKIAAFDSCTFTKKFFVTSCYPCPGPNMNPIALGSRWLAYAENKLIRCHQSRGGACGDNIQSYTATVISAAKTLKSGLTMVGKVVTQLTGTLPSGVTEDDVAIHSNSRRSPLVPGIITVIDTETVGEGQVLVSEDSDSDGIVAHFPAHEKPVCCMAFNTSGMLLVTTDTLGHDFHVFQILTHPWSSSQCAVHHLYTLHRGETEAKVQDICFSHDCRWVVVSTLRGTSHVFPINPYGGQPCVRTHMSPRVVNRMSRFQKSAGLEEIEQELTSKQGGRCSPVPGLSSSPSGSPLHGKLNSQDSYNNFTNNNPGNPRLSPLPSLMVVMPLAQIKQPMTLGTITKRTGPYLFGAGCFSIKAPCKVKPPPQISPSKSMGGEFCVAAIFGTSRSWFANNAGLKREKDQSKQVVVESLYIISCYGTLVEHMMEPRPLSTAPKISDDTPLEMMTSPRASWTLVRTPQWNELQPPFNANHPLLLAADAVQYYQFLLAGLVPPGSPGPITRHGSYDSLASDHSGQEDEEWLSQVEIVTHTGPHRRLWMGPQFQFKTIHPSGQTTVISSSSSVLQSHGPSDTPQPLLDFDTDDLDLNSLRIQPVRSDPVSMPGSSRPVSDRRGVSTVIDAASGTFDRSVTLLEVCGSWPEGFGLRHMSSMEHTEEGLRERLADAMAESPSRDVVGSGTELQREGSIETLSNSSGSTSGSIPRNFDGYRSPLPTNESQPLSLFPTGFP
row,effect of a mutation on the interaction,Variant
1,with no effect,G13R

# Variants of: B8
# Details: with rbpms_human RBPMS
row,effect of a mutation on the interaction,Variant
1,with no effect,M251V
2,with no effect,A226E
